This is an account of results in patent US20170015738A1.

As usually defined, the IC50 is the midpoint of a concentration-inhibition curve.

Experiment [1] addresses hyper-phosphorylated P301L mutant human 4R0N tau from rTg4510 mouse brain (64 and 70 kDa species; P3 / brain extract) (human) (UniProt P10636). The experiment in a line: MSD ELISA on immobilised P3; ratio of binding to Tg4510 over wt mouse material. For orientation: In an ELISA, binding on a coated surface is turned into a signal by an enzyme label.
Experiment [2] shares this target. The experiment is described as follows: immunodepletion of rTg4510 brain extracts; western blot quantification (FIG. 14). On the technique in general: Immunoblotting shows a protein as a band on a membrane.
For experiment [3] the target is unchanged. The experiment is described as follows: immunodepletion of rTg4510 brain extract with antibody on Protein G Dynabeads; western blot.
The target is the same in experiment [4]. The experiment is described as follows: fluid phase MSD ELISA: antibody mixed with rTg4510 P3 in solution, capture on C10-2 coated plates.
Experiment [5] has the same target. The experiment is described as follows: cell-based or functional assay.
Experiment [6] has as its target aggregated tau in rTg4510 brain extract (Cisbio assay) (human) (UniProt P10636). The experiment in a line: immunodepletion of rTg4510 brain extract with antibody on Protein G Dynabeads; Cisbio aggregation assay.

Chain of hyper-phosphorylated P301L mutant human 4R0N tau from rTg4510 mouse brain (64 and 70 kDa species; P3 / brain extract) (human) (P10636 other isoform, or with tags, fused parts or gaps P301L P301L): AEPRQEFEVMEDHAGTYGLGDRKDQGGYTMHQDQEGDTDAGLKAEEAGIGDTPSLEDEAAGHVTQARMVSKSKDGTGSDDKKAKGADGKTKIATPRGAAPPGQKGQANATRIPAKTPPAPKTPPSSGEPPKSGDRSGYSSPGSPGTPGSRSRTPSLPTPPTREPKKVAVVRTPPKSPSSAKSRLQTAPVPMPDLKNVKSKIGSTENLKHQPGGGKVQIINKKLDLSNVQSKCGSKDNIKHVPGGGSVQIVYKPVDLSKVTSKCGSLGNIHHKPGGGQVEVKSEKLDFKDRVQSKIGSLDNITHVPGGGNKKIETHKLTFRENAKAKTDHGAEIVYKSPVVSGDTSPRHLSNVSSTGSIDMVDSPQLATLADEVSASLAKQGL
Chain of aggregated tau in rTg4510 brain extract (Cisbio assay) (human) (P10636 other isoform, or with tags, fused parts or gaps): as the sequence (P10636 other isoform, or with tags, fused parts or gaps P301L P301L) above

B1: 4E4 antibody (antibody, from another filing, V domains shown)
VH: EVQLVESGGGLVQPGGSLKLSCAASGFNFNISAIHWVRQASGKGLEWVGRIRSKSHNYATLYAASLKGRFTLSRDDSRNTAYLQMSSLQTEDMAVYYCTVLSANYDTFDYWGQGTLVTVSS
VL: SYELTQPPSVSVSPGQTARISCFGDTLPKQYTYWYQQKPGQAPVLVIYKDTERPSGIPERFSGSSSGTTVTLTISGVQAEDEADYYCLSADNSATWVFGGGTKVTVL
Turning to B1, the TG/wt in experiment [1] stood at 1 fold.

B2: Antibody D1.2 (antibody, mouse IgG2b, kappa, V domains shown)
VH: QVQLQQSGAELVRPGASVTLSCKASGNTFTDYEIHWVKQTPVHGLEWIGAIDPETGNTAYNQKFKGKARLTADKSSSTAYMELRSLTSEDSAVYYCTRSRGFDYWGQGTTLTVSS
VL: DVMMTQTPLSLPVSLGDQASISCRSSQSLVHSNGNTYLHWHLQKPGQSPKFLIYKVSNRFSGVPDRFSGSGSGTDFTLKISRVEAEDLGVYFCSQSTHVPFTFGSGTKLEIKR
In the case of B2, the percent reduction of the 64 kDa band in experiment [2] worked out at 90%. This molecule also displayed a percent removed by immunodepletion in experiment [3] of 95%.

B3: Antibody C10-2 (murine) (antibody, mouse IgG1, kappa, V domains shown)
VH: QVQLQQSDAELVKPGASVKISCKASGYTFTDRTIHWVKQRPEQGLEWIGYIYPGDGSTKYNENFKGKATLTADKSSSTAYMQLNSLTSEDSAVYFCARRGAMDYWGQGTSVTVSS
VL: DVQMIQSPSSLSASLGDIVTMTCQASQGTSINLNWFQQKPGKAPKLLIYGASNLEDGVPSRFSGSRYGTDFTLTISSLEDEDMATYFCLQHTYLPFTFGSGTKLEIKR
Molecule B3 showed an IC50 in experiment [4] of 20 nM. In experiment [5], this molecule showed a prevention of insoluble tau in HEK293 cells seeded with immunodepleted rTg4510 homogenate (western blot) of 97% and a prevention of tau aggregation in HEK293 cells seeded with immunodepleted rTg4510 homogenate (Cisbio assay) of 88%. Moreover, the TG/wt in experiment [1] was determined as 118 fold. This molecule had a percent reduction of the 64 kDa band in experiment [2] of 90%. Further, in experiment [3], the percent removed by immunodepletion amounted to 95%. The percent of tau aggregates removed in experiment [6] came out at 99%.
